Test results reported in PMC11406361, “Several orphan solute carriers functionally identified as organic cation transporters: Substrates specificity compared with known cation transporters” (The Journal of Biological Chemistry, 2024).

Legend:
Assay in all cases: cells, lysate or membranes
[1] = substrate: C[N+](C)(C)CCO; conditions: pH 7.4
[2] = substrate: CCCN1CCCC[C@H]1C(=O)Nc1c(C)cccc1C; conditions: other: SLC35G3, HEK293, net uptake over empty vector cells; pH 7.4
[3] = substrate: CCCNC(C)C(=O)Nc1c(C)csc1C(=O)OC; conditions: other: SLC35G3, HEK293, net uptake over empty vector cells; pH 7.4
[4] = substrate: CCOC(=O)C1(c2ccccc2)CCN(C)CC1; conditions: other: SLC35G3, HEK293, net uptake over empty vector cells; pH 7.4
[5] = substrate: CNC(C)Cc1ccc2c(c1)OCO2; conditions: other: SLC35G3, HEK293, net uptake over empty vector cells; pH 7.4
[6] = substrate: COC(=O)[C@H]1[C@@H](OC(=O)c2ccccc2)C[C@@H]2CC[C@H]1N2C; conditions: pH 7.4
[7] = substrate: Clc1cccc(Cl)c1N=C1NCCN1; conditions: other: SLC35G3, HEK293, net uptake over empty vector cells; pH 7.4
[8] = substrate: COc1ccc2c3c1O[C@H]1C(=O)CC[C@@]4(O)[C@@H](C2)N(C)CC[C@]314; conditions: pH 7.4
[9] = substrate: c1cnc2cc3c(cc2n1)[C@@H]1CNC[C@H]3C1; conditions: other: SLC35E2A, HEK293, net uptake over empty vector cells; pH 7.4
[10] = other: SLC35F3, HEK293, net uptake over empty vector cells
[11] = other: SLC44A1, HEK293, net uptake over empty vector cells
[12] = other: SLC35G4, HEK293, net uptake over empty vector cells
[13] = other: SLC35F2, HEK293, net uptake over empty vector cells
[14] = other: SLC35F4, HEK293, net uptake over empty vector cells
[15] = other: SLC35F5, HEK293, net uptake over empty vector cells
[16] = other: SLC35E4, HEK293, net uptake over empty vector cells

B1: SLC35F3 (Homo sapiens) (protein)
chain: MKKHSARVAPLSACNSPVLTLTKVEGEERPRDSPGPAEAQAPAGVEAGGRASRRCWTCSRAQLKKIFWGVAVVLCVCSSWAGSTQLAKLTFRKFDAPFTLTWFATNWNFLFFPLYYVGHVCKSTEKQSVKQRYRECCRFFGDNGLTLKVFFTKAAPFGVLWTLTNYLYLHAIKKINTTDVSVLFCCNKAFVFLLSWIVLRDRFMGVRIVAAILAIAGIVMMTYADGFHSHSVIGIALVVASASMSALYKVLFKLLLGSAKFGEAALFLSILGVFNILFITCIPIILYFTKVEYWSSFDDIPWGNLCGFSVLLLTFNIVLNFGIAVTYPTLMSLGIVLSIPVNAVIDHYTSQIVFNGVRVIAIIIIGLGFLLLLLPEEWDVWLIKLLTRLKVRKKEEPAEGAADLSSGPQSKNRRARPSFAR
Km [1, 10]: 112 (±96.4) μM | Vmax [1, 10]: 0.000135 µmol/min/mg | Vmax/Km [1, 10]: 1.21 µL/min/mg

B2: SLC44A1 (Homo sapiens) (protein)
chain: MGCCSSASSAAQSSKREWKPLEDRSCTDIPWLLLFILFCIGMGFICGFSIATGAAARLVSGYDSYGNICGQKNTKLEAIPNSGMDHTQRKYVFFLDPCNLDLINRKIKSVALCVAACPRQELKTLSDVQKFAEINGSALCSYNLKPSEYTTSPKSSVLCPKLPVPASAPIPFFHRCAPVNISCYAKFAEALITFVSDNSVLHRLISGVMTSKEIILGLCLLSLVLSMILMVIIRYISRVLVWILTILVILGSLGGTGVLWWLYAKQRRSPKETVTPEQLQIAEDNLRALLIYAISATVFTVILFLIMLVMRKRVALTIALFHVAGKVFIHLPLLVFQPFWTFFALVLFWVYWIMTLLFLGTTGSPVQNEQGFVEFKISGPLQYMWWYHVVGLIWISEFILACQQMTVAGAVVTYYFTRDKRNLPFTPILASVNRLIRYHLGTVAKGSFIITLVKIPRMILMYIHSQLKGKENACARCVLKSCICCLWCLEKCLNYLNQNAYTATAINSTNFCTSAKDAFVILVENALRVATINTVGDFMLFLGKVLIVCSTGLAGIMLLNYQQDYTVWVLPLIIVCLFAFLVAHCFLSIYEMVVDVLFLCFAIDTKYNDGSPGREFYMDKVLMEFVENSRKAMKEAGKGGVADSRELKPMASGASSA
Km [1, 11]: 28.9 (±18.5) μM | Vmax [1, 11]: 6.01e-05 µmol/min/mg | Vmax/Km [1, 11]: 2.08 µL/min/mg

B3: SLC35G4 (Homo sapiens) (protein)
chain: MAGSHPYFNLPDSTHPSPPSTPPSLHWHQRCQPSDATNGLLVALLGGGLPAGFVGPLSRMAYQASNLPSLELVICRCLFHLPIALLLKLRGDPLLGPPDIRGRTCFCALLNVLNIGCAYSAVQVVPTGNAATVRKHSSTVCSAILTLCLESQVLSGYDWCGLLGSILGLIIIVGPGLWTLQEGTTGVYTGLGYVQAFLGGLALSLGLLVYRSLHFPSCLPTVAFLSGLVGLLGSVPGLFVLQSPVLPSDLLSWSCVGAVGILTLVSFTCVGYAVTKAHPALVCAVLHSEVVMALILQYFMLHETVAPSDIMGAGVVLGSIAIITARNLICERTGKVEE
Km [1, 12]: 13.2 (±7.02) μM | Vmax [1, 12]: 0.000108 µmol/min/mg | Vmax/Km [1, 12]: 8.15 µL/min/mg

B4: SLC35G3 (Homo sapiens) (protein)
chain: MAGSHPYFNQPDSTHPSPPSAPPSLRWYQRCQPSDATSGLLVALLGGGLPAGFVGPLSRMAYQASNLPSLELLIWRCLFHLPIALLLKLRGDPLLGTPDIRSRAFFCALLNILSIGCAYSAVQVVPAGNAATVRKGSSTVCSAVLTLCLESQGLSGYDWCGLLGCILGLIIIVGPGLWTLQEGTTGVYTALGYVEAFLGGLALSLRLLVYRSLHFPPCLPTVAFLSGLVGLLGSVPGLFVLQAPVLPSDLLSWSCVGAVGILALVSFTCVGYAVTKAHPALVCAVLHSEVVVALILQYYMLHETVAPSDIVAAGVVLGSIAIITAQNLSCERTGRVEE
Km [2]: 151 (±60.7) μM | Vmax [2]: 0.000551 µmol/min/mg | Vmax/Km [2]: 3.64 µL/min/mg | Km [3]: 143 (±119) μM | Vmax [3]: 0.000291 µmol/min/mg | Vmax/Km [3]: 2.04 µL/min/mg | Km [4]: 57.7 (±44.9) μM | Vmax [4]: 0.000265 µmol/min/mg | Vmax/Km [4]: 4.6 µL/min/mg | Km [5]: 141 (±50.4) μM | Vmax [5]: 0.000606 µmol/min/mg | Vmax/Km [5]: 4.31 µL/min/mg | Km [6]: 466 (±117) μM | Vmax [6]: 0.000739 µmol/min/mg | Vmax/Km [6]: 1.59 µL/min/mg | Km [7]: 48.2 (±23.9) μM | Vmax [7]: 0.000234 µmol/min/mg | Vmax/Km [7]: 4.85 µL/min/mg

B5: SLC35F2 (Homo sapiens) (protein)
chain: MEADSPAGPGAPEPLAEGAAAEFSSLLRRIKGKLFTWNILKTIALGQMLSLCICGTAITSQYLAERYKVNTPMLQSFINYCLLFLIYTVMLAFRSGSDNLLVILKRKWWKYILLGLADVEANYVIVRAYQYTTLTSVQLLDCFGIPVLMALSWFILHARYRVIHFIAVAVCLLGVGTMVGADILAGREDNSGSDVLIGDILVLLGASLYAISNVCEEYIVKKLSRQEFLGMVGLFGTIISGIQLLIVEYKDIASIHWDWKIALLFVAFALCMFCLYSFMPLVIKVTSATSVNLGILTADLYSLFVGLFLFGYKFSGLYILSFTVIMVGFILYCSTPTRTAEPAESSVPPVTSIGIDNLGLKLEENLQETHSAVL
Km [6]: 161 (±99.5) μM | Vmax [6]: 0.000415 µmol/min/mg | Vmax/Km [6]: 2.58 µL/min/mg | Km [1, 13]: 32.6 (±14.9) μM | Vmax [1, 13]: 8.1e-05 µmol/min/mg | Vmax/Km [1, 13]: 2.48 µL/min/mg

B6: SLC35F4 (Homo sapiens) (protein)
chain: MDELLLDLFHKLTSGRQLAAGNGLCGISHKEQEVWKPGHNILVKMRKEDKSLVWLIHSTLARYTQVTNFLGTSRSSVTRCKPGANCPSSHSGISRQLSPLSVTEDSSAPILELQNQGSSGVCGHRVERQNRSADDGTQTHSENSSQENRIKARCLSCTSMVLKGIWGLLIILSVSSSWVGTTQIVKITYKNFYCPFFMTWFSTNWNIMFFPVYYSGHLATAQEKQSPMKKFRECSRIFGEDGLTLKLFLKRTAPFSILWTLTNYLYLLALKKLTATDVSALFCCNKAFVFLLSWIVLKDRFMGVRIVAAIMAITGIVMMAYADNFHADSIIGVAFAVGSASTSALYKVLFKMFLGSANFGEAAHFVSTLGFFNLIFISFTPVILYFTKVEHWSSFAALPWGCLCGMAGLWLAFNILVNVGVVLTYPILISIGTVLSVPGNAAVDLLKQEVIFNVVRLAATIIICIGFLLMLLPEEWDEITLRFINSLKEKKSEEHVDDVTDPSIHLRGRGRANGTVSIPLA
Km [1, 14]: 47.4 (±48.1) μM | Vmax [1, 14]: 6.28e-05 µmol/min/mg | Vmax/Km [1, 14]: 1.32 µL/min/mg

B7: SLC35E2A (Homo sapiens) (protein)
chain: MSSSVKTPALEELVPGSEEKPKGRSPLSWGSLFGHRSEKIVFAKSDGGTDENVLTVTITETTVIESDLGVWSSRALLYLTLWFFFSFCTLFLNKYILSLLGGEPSMLGAVQMLSTTVIGCVKTLVPCCLYQHKARLSYPPNFLMTMLFVGLMRFATVVLGLVSLKNVAVSFAETVKSSAPIFTVIMSRMILGEYTGRPSDREEREELQLQPGRGAAASDRRSPVPPSERHGVRPHGENLPGDFQVPQALHRVALSMALPCPMLPAS
Km [6]: 165 (±47.7) μM | Vmax [6]: 0.000683 µmol/min/mg | Vmax/Km [6]: 4.14 µL/min/mg | Km [8]: 92.0 (±31.0) μM | Vmax [8]: 0.000317 µmol/min/mg | Vmax/Km [8]: 3.44 µL/min/mg | Km [9]: 474 (±190) μM | Vmax [9]: 0.000847 µmol/min/mg | Vmax/Km [9]: 1.79 µL/min/mg

B8: SLC35F5 (Homo sapiens) (protein)
chain: MVPPRRHRGAGRPGVLSSSPPFRLRSAKFSGIALEDLRRALKTRLQMVCVFVMNRMNSQNSGFTQRRRMALGIVILLLVDVIWVASSELTSYVFTQYNKPFFSTFAKTSMFVLYLLGFIIWKPWRQQCTRGLRGKHAAFFADAEGYFAACTTDTTMNSSLSEPLYVPVKFHDLPSEKPESTNIDTEKTPKKSRVRFSNIMEIRQLPSSHALEAKLSRMSYPVKEQESILKTVGKLTATQVAKISFFFCFVWFLANLSYQEALSDTQVAIVNILSSTSGLFTLILAAVFPSNSGDRFTLSKLLAVILSIGGVVLVNLAGSEKPAGRDTVGSIWSLAGAMLYAVYIVMIKRKVDREDKLDIPMFFGFVGLFNLLLLWPGFFLLHYTGFEDFEFPNKVVLMCIIINGLIGTVLSEFLWLWGCFLTSSLIGTLALSLTIPLSIIADMCMQKVQFSWLFFAGAIPVFFSFFIVTLLCHYNNWDPVMVGIRRIFAFICRKHRIQRVPEDSEQCESLISMHSVSQEDGAS
Km [1, 15]: 5.83 (±3.23) μM | Vmax [1, 15]: 3.48e-05 µmol/min/mg | Vmax/Km [1, 15]: 5.97 µL/min/mg

B9: SLC35E4 (Homo sapiens) (protein)
chain: MCRCPPEHHDGRMTSAEVGAAAGGAQAAGPPEWPPGSPQALRQPGRARVAMAALVWLLAGASMSSLNKWIFTVHGFGRPLLLSALHMLVAALACHRGARRPMPGGTRCRVLLLSLTFGTSMACGNVGLRAVPLDLAQLVTTTTPLFTLALSALLLGRRHHPLQLAAMGPLCLGAACSLAGEFRTPPTGCGFLLAATCLRGLKSVQQSALLQEERLDAVTLLYATSLPSFCLLAGAALVLEAGVAPPPTAGDSRLWACILLSCLLSVLYNLASFSLLALTSALTVHVLGNLTVVGNLILSRLLFGSRLSALSYVGIALTLSGMFLYHNCEFVASWAARRGLWRRDQPSKGL
Km [1, 16]: 245 (±331) μM | Vmax [1, 16]: 4.19e-05 µmol/min/mg | Vmax/Km [1, 16]: 0.17 µL/min/mg
